Assay results from patent US10947296B2, “Fusion protein Slit2D2(C386S)-HSA and use thereof in treatment of fibrotic diseases” (SUZHOU THINKING POWER BIOTECHNOLOGY CO., LTD., priority 2016, dated 2021).

Experiment: Pharmacokinetic assay, single intravenous administration
Assay type: in vivo
Conditions: for Plasma drug concentration: IV 2 mg/kg
Protocol: Lines and sources: cynomolgus monkeys, Guangxi Xiongsen Primate Laboratory Animal Breeding Development Co., Ltd.
The test substance was administered in a single dose by intravenous injection.
The blood samples were collected and centrifuged to separate plasma (centrifugation conditions: 8000 rpm, 6 minutes, 2-8° C.). The contents of the label included: the subject number of Medicilon Pharmaceutical Technology (Shanghai) Co., Ltd., relevant test days, serial number of animals, date, and sampling time point. The collected plasma samples were stored in a refrigerator at ≤−65° C. before analysis. After analysis, the remaining plasma samples were stored in the refrigerator at ≤−65° C. for subsequent processing.
The biological sample analysis method and analysis of all samples were performed by the analytical laboratory of Medicilon Pharmaceutical Technology (Shanghai) Co., Ltd. Each plate in the sample analysis must contain a standard curve. At least ¾ of the points and not less than 6 non-zero concentration points (without anchor points) constituting the standard curve should meet the acceptance criteria for method validation. Each plate should also contain at least 2 sets and each set comprised at least 3 quality control samples of different concentration levels (high-concentration quality control, intermediate-concentration quality control, and low-concentration quality control).
The pharmacokinetic parameters were calculated with non-compartmental model using Phoenix pharmacokinetic software: AUC0-t, AUC0-∞, Cmax, t1/2, Tmax, C0, Cl, MRT0-∞ and Vss.

[1] = Mean of 4 animals, single IV 2 mg/kg

Substance “Slit2D2(C386S)-HSA: Fusion protein of the Slit2 D2 domain with C386S mutation linked to human serum albumin; amino acid sequence SEQ ID NO: 3” has a Plasma drug concentration (101-Male, day 0.125) of 16151.832 ng/mL, a Plasma drug concentration (101-Male, day 0.25) of 15501.583 ng/mL and a Plasma drug concentration (101-Male, day 0.5) of 13047.082 ng/mL. It also gave a Plasma drug concentration (101-Male, day 2) of 11326.279 ng/mL, a Plasma drug concentration (101-Male, day 5) of 6773.314 ng/mL and a Plasma drug concentration (101-Male, day 6) of 2717.981 ng/mL. For the same substance, the Plasma drug concentration (101-Male, day 8) was 1577.577 ng/mL, the Plasma drug concentration (101-Male, day 11) was “BLQ (Below the minimum limit of quantitation)” and the Plasma drug concentration (101-Male, day 14) was “BLQ (Below the minimum limit of quantitation)”. For the same substance, the Plasma drug concentration (101-Male, day 17) was “BLQ (Below the minimum limit of quantitation)”, the Plasma drug concentration (101-Male, day 19) was “BLQ (Below the minimum limit of quantitation)” and the Plasma drug concentration (101-Male, day 22) was “BLQ (Below the minimum limit of quantitation)”. For the same substance, the Plasma drug concentration (101-Male, day 26) was “BLQ (Below the minimum limit of quantitation)”, the Plasma drug concentration (101-Male, day 29) was “BLQ (Below the minimum limit of quantitation)” and the Plasma drug concentration (101-Male, day 36) was “BLQ (Below the minimum limit of quantitation)”. The Plasma drug concentration (101-Male, day 43) was “BLQ (Below the minimum limit of quantitation)”, the “AUC(0-t)” value (101-Male, single IV 2 mg/kg) was 45588.03 ng·days/mL and the “AUC(0-∞)” value (101-Male, single IV 2 mg/kg) was 50239.09 ng·days/mL. The C0 (101-Male, single IV 2 mg/kg) was 16829.36 ng/mL, the CL (101-Male, single IV 2 mg/kg) was 1.659 mL/h/kg and the Cmax (101-Male, single IV 2 mg/kg) was 16151.83 ng/mL. For the same substance, the “MRT(0-∞)” value (101-Male, single IV 2 mg/kg) was 68.2 h, the Tmax (101-Male, single IV 2 mg/kg) was 3.12 h and the Vss (101-Male, single IV 2 mg/kg) was 0.11309 L/kg. It also gave a t1/2 (101-Male, single IV 2 mg/kg) of 49 h, a Plasma drug concentration (102-Male, day 0.125) of 12629.116 ng/mL and a Plasma drug concentration (102-Male, day 0.25) of 13612.467 ng/mL. It also gave a Plasma drug concentration (102-Male, day 0.5) of 13169.983 ng/mL, a Plasma drug concentration (102-Male, day 2) of 8055.924 ng/mL and a Plasma drug concentration (102-Male, day 5) of 4063.179 ng/mL. The Plasma drug concentration (102-Male, day 6) was 2215.633 ng/mL, the Plasma drug concentration (102-Male, day 8) was “BLQ (Below the minimum limit of quantitation)” and the Plasma drug concentration (102-Male, day 11) was “BLQ (Below the minimum limit of quantitation)”. The Plasma drug concentration (102-Male, day 14) was “BLQ (Below the minimum limit of quantitation)”, the Plasma drug concentration (102-Male, day 17) was “BLQ (Below the minimum limit of quantitation)” and the Plasma drug concentration (102-Male, day 19) was “BLQ (Below the minimum limit of quantitation)”. For the same substance, the Plasma drug concentration (102-Male, day 22) was “BLQ (Below the minimum limit of quantitation)”, the Plasma drug concentration (102-Male, day 26) was “BLQ (Below the minimum limit of quantitation)” and the Plasma drug concentration (102-Male, day 29) was “BLQ (Below the minimum limit of quantitation)”. For the same substance, the Plasma drug concentration (102-Male, day 36) was “BLQ (Below the minimum limit of quantitation)”, the Plasma drug concentration (102-Male, day 43) was “BLQ (Below the minimum limit of quantitation)” and the “AUC(0-t)” value (102-Male, single IV 2 mg/kg) was 30270.94 ng·days/mL. The “AUC(0-∞)” value (102-Male, single IV 2 mg/kg) was 37136.49 ng·days/mL, the C0 (102-Male, single IV 2 mg/kg) was 12629.12 ng/mL and the CL (102-Male, single IV 2 mg/kg) was 2.244 mL/h/kg. For the same substance, the Cmax (102-Male, single IV 2 mg/kg) was 13612.47 ng/mL, the “MRT(0-∞)” value (102-Male, single IV 2 mg/kg) was 67.4 h and the Tmax (102-Male, single IV 2 mg/kg) was 6 h. The Vss (102-Male, single IV 2 mg/kg) was 0.15145 L/kg, the t1/2 (102-Male, single IV 2 mg/kg) was 51.6 h and the Plasma drug concentration (103-Female, day 0.125) was 13162.76 ng/mL. The Plasma drug concentration (103-Female, day 0.25) was 11266.684 ng/mL, the Plasma drug concentration (103-Female, day 0.5) was 9508.594 ng/mL and the Plasma drug concentration (103-Female, day 2) was 5952.269 ng/mL. It also gave a Plasma drug concentration (103-Female, day 5) of 3914.939 ng/mL, a Plasma drug concentration (103-Female, day 6) of 2155.966 ng/mL and a Plasma drug concentration (103-Female, day 8) of 731.688 ng/mL. The Plasma drug concentration (103-Female, day 11) was “BLQ (Below the minimum limit of quantitation)”, the Plasma drug concentration (103-Female, day 14) was “BLQ (Below the minimum limit of quantitation)” and the Plasma drug concentration (103-Female, day 17) was “BLQ (Below the minimum limit of quantitation)”. The Plasma drug concentration (103-Female, day 19) was “BLQ (Below the minimum limit of quantitation)”, the Plasma drug concentration (103-Female, day 22) was “BLQ (Below the minimum limit of quantitation)” and the Plasma drug concentration (103-Female, day 26) was “BLQ (Below the minimum limit of quantitation)”. For the same substance, the Plasma drug concentration (103-Female, day 29) was “BLQ (Below the minimum limit of quantitation)”, the Plasma drug concentration (103-Female, day 36) was “BLQ (Below the minimum limit of quantitation)” and the Plasma drug concentration (103-Female, day 43) was “BLQ (Below the minimum limit of quantitation)”. The “AUC(0-t)” value (103-Female, single IV 2 mg/kg) was 28598.53 ng·days/mL, the “AUC(0-∞)” value (103-Female, single IV 2 mg/kg) was 30524.24 ng·days/mL and the C0 (103-Female, single IV 2 mg/kg) was 15377.93 ng/mL. The CL (103-Female, single IV 2 mg/kg) was 2.73 mL/h/kg, the Cmax (103-Female, single IV 2 mg/kg) was 13162.76 ng/mL and the “MRT(0-∞)” value (103-Female, single IV 2 mg/kg) was 61.9 h. It also gave a Tmax (103-Female, single IV 2 mg/kg) of 3.12 h, a Vss (103-Female, single IV 2 mg/kg) of 0.16888 L/kg and a t1/2 (103-Female, single IV 2 mg/kg) of 43.7 h. The Plasma drug concentration (104-Female, day 0.125) was 13541.873 ng/mL, the Plasma drug concentration (104-Female, day 0.25) was 12289.107 ng/mL and the Plasma drug concentration (104-Female, day 0.5) was 10597.55 ng/mL. For the same substance, the Plasma drug concentration (104-Female, day 2) was 8296.324 ng/mL, the Plasma drug concentration (104-Female, day 5) was 3663.777 ng/mL and the Plasma drug concentration (104-Female, day 6) was 1433.272 ng/mL. The Plasma drug concentration (104-Female, day 8) was “BLQ (Below the minimum limit of quantitation)”, the Plasma drug concentration (104-Female, day 11) was “BLQ (Below the minimum limit of quantitation)” and the Plasma drug concentration (104-Female, day 14) was “BLQ (Below the minimum limit of quantitation)”. The Plasma drug concentration (104-Female, day 17) was “BLQ (Below the minimum limit of quantitation)”, the Plasma drug concentration (104-Female, day 19) was “BLQ (Below the minimum limit of quantitation)” and the Plasma drug concentration (104-Female, day 22) was “BLQ (Below the minimum limit of quantitation)”. For the same substance, the Plasma drug concentration (104-Female, day 26) was “BLQ (Below the minimum limit of quantitation)”, the Plasma drug concentration (104-Female, day 29) was “BLQ (Below the minimum limit of quantitation)” and the Plasma drug concentration (104-Female, day 36) was “BLQ (Below the minimum limit of quantitation)”. The Plasma drug concentration (104-Female, day 43) was “BLQ (Below the minimum limit of quantitation)”, the “AUC(0-t)” value (104-Female, single IV 2 mg/kg) was 28034.90 ng·days/mL and the “AUC(0-∞)” value (104-Female, single IV 2 mg/kg) was 31263.33 ng·days/mL. It also gave a C0 (104-Female, single IV 2 mg/kg) of 14922.35 ng/mL, a CL (104-Female, single IV 2 mg/kg) of 2.665 mL/h/kg and a Cmax (104-Female, single IV 2 mg/kg) of 13541.87 ng/mL. The “MRT(0-∞)” value (104-Female, single IV 2 mg/kg) was 50.4 h, the Tmax (104-Female, single IV 2 mg/kg) was 3.12 h and the Vss (104-Female, single IV 2 mg/kg) was 0.13446 L/kg. The t1/2 (104-Female, single IV 2 mg/kg) was 37.4 h, the “AUC(0-t)” value [1] was 33123.10 ng·days/mL and the “AUC(0-∞)” value [1] was 37290.79 ng·days/mL. It also gave a C0 [1] of 14939.69 ng/mL, a CL [1] of 2.325 mL/h/kg and a Cmax [1] of 14117.23 ng/mL. For the same substance, the “MRT(0-∞)” value [1] was 61.9 h, the Tmax [1] was 3.84 h and the Vss [1] was 0.14197 L/kg. The t1/2 [1] was 45.4 h, the Plasma drug concentration (Mean, day 0.125) was 13871.40 ng/mL and the Plasma drug concentration (Mean, day 0.25) was 13167.46 ng/mL. It also gave a Plasma drug concentration (Mean, day 0.5) of 11580.80 ng/mL, a Plasma drug concentration (Mean, day 2) of 8407.70 ng/mL and a Plasma drug concentration (Mean, day 5) of 4603.80 ng/mL. For the same substance, the Plasma drug concentration (Mean, day 6) was 2130.71 ng/mL, the Plasma drug concentration (Mean, day 8) was 1154.63 ng/mL and the “Observation during the test (morbidity, damage, death rate, food and water supply)” value (single IV 2 mg/kg) was “No abnormal findings”. For the same substance, the “ratio of AUC(0-∞) between male and female” value (single IV 2 mg/kg) was 1.41, the “ratio of Cmax between male and female” value (single IV 2 mg/kg) was 1.11 and the “ratio of t1/2 between male and female” value (single IV 2 mg/kg) was 1.24.
